Data published in PMC6430086.

Legend:
[1] = target: HIV-1 envelope glycoprotein gp120 (HIV-1) (UniProt P04578)
[2] = target: HIV-1 envelope glycoprotein gp41 (HIV-1) (UniProt P04578)

| Substance | EC50 to inhibit giant cell (syncytium) formation in SupT1 + HUT-78/HIV-1 co-cultures (fusion by gp120/gp41-CD4 interaction) [1] [nM] | EC50 to inhibit giant cell (syncytium) formation in SupT1 + HUT-78/HIV-1 co-cultures (fusion by gp120/gp41-CD4 interaction) [2] [nM] |
| --- | --- | --- |
| Canavalia maritima lectin (natural protein) | 75 | 75 |
| Dioclea sclerocarpa lectin (natural protein) | 63 | 63 |
| Canavalia brasiliensis lectin (from UniProt P55915 1-237) (natural protein) | 75 | 75 |
| Dioclea lasiocarpa lectin (natural protein) | 46 | 46 |
